Experimental data from patent publication US20240116985A1 (published 2024).
Starred links: 1 amine or outer side, 2 acyl side, 3 side chain; linkers in the order of their positions; H or OH if unused. Positions of bridges follow the written chain, without caps; N, C: chain ends. Non-standard residues stand in square brackets, D forms with d. Primed or numbered codes have the meaning given here. No end group written: not given here. PyrS2″ = (S)-3-amino-1-((pent-4-en-1-yloxy)carbonyl)pyrrolidine-3-carboxylic acid (stapling residue), C=CCCCOC(=O)N1CC[C@@](N[*:1])(C(=O)[*:2])C1; B5(4) = 2,2-bis(4-pentenyl)glycine = 2-amino-2-(pent-4-en-1-yl)hept-6-enoic acid (stitching residue), C=CCCCC(CCCC=C)(N[*:1])C(=O)[*:2]; PyrS2 = (S)-3-amino-1-((pent-4-en-1-yloxy)carbonyl)pyrrolidine-3-carboxylic acid, C=CCCCOC(=O)N1CC[C@@](N[*:1])(C(=O)[*:2])C1; B5(3) = 2,2-bis(4-pentenyl)glycine (stitching residue), C=CCCCC(CCCC=C)(N[*:1])C(=O)[*:2]; Phe(3-CF3) = N[C@@H](Cc1cccc(C(F)(F)F)c1)C(=O)O; Phe(4-CF3) = N[C@@H](Cc1ccc(C(F)(F)F)cc1)C(=O)O; Phe(2-CF3) = N[C@@H](Cc1ccccc1C(F)(F)F)C(=O)O; Phe(2-Cl) = N[C@@H](Cc1ccccc1Cl)C(=O)O; Ala(cPent) = N[C@@H](CC1CCCC1)C(=O)O; Bta = N[C@@H](Cc1csc2ccccc12)C(=O)O; αAllylPro = C=CC[C@@]1(C(=O)O)CCCN1; tBuAla = CC(C)(C)C[C@H](N)C(=O)O; 3Thi = N[C@@H](Cc1ccsc1)C(=O)O; S8 = C=CCCCCCC[C@](C)(N)C(=O)O; Thr(ol) = C[C@@H](O)[C@H](N)CO

T1: B-cat-Halo (beta-catenin HaloTag NanoBRET construct expressed in HEK293 cells) (UniProt P35222 2-781)
T1 sequence (looked up): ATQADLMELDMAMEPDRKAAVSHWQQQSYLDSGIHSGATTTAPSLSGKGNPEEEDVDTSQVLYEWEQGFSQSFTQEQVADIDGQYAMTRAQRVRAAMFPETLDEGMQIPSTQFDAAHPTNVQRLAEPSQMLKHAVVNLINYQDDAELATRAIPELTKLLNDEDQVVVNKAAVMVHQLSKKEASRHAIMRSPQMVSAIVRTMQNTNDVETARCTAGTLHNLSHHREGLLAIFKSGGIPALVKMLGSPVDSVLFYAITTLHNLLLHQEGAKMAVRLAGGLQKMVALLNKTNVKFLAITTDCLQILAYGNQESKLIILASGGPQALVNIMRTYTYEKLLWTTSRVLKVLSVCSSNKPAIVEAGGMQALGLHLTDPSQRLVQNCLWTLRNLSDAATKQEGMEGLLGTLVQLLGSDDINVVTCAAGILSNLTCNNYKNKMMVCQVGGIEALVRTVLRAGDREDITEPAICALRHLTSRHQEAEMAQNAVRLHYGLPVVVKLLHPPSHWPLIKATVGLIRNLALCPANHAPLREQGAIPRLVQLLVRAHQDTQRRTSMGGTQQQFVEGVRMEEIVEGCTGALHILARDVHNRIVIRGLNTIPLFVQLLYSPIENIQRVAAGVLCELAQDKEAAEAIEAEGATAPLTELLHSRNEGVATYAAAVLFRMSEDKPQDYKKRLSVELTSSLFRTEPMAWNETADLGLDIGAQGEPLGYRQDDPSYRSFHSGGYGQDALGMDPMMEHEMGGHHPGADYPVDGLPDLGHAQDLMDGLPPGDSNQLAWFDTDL

T2: Bcat-Halo (beta-catenin HaloTag fusion expressed in HEK293 cells) (UniProt P35222 1-781)
T2 sequence (looked up): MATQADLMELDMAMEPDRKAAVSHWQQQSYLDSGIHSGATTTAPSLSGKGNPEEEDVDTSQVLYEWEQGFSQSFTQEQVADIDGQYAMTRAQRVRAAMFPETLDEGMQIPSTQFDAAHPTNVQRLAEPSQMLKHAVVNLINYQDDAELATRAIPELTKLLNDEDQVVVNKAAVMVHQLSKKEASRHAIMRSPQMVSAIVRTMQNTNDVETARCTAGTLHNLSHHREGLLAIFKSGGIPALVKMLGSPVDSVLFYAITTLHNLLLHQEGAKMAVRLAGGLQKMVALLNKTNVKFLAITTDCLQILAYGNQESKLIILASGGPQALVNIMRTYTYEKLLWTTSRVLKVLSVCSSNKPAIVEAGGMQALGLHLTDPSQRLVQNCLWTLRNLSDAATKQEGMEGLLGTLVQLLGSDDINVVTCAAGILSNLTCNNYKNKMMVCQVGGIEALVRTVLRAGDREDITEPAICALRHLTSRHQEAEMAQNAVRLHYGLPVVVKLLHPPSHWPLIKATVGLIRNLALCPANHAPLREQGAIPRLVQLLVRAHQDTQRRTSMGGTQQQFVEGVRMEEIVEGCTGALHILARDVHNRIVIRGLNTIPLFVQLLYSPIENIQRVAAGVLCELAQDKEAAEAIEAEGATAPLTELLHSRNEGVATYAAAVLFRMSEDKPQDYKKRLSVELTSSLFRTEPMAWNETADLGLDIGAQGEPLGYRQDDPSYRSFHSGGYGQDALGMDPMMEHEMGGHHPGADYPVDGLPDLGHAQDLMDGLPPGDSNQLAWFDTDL

B1: I-1356 (peptide)
peptide: [αAllylPro]D[tBuAla][B5(4)]DDAAFS[PyrS2″]F[Bta]S-NH2
modifications: staple 1-4, 4-11; not fully specified; printed as PL3-Asp-Npg-B5-Asp-Asp-Ala-Ala-Phe-Ser-PyrS2-Phe-BztA-Ser-NH2

biological target: T1, B-cat-Halo (beta-catenin HaloTag …); test: cell-based or functional assay

Q: With Ac-[αAllylPro]D[tBuAla][B5(3)]DDAAFN[PyrS2″][Phe(2-Cl)][Bta][Thr(ol)] (staple 1-4, 4-11) [I-1082] as the binder, how does the “NanoBRET Abs IC50” value read?
A: 14.1 µM

Q: Ac-[αAllylPro]D[tBuAla][B5(3)]DDAAFT[S8][Phe(2-Cl)][Bta]Q-NH2 (staple 1-4, 4-11; also: later eluting staple isomer) [I-1087] was tested. Which “NanoBRET Abs IC50” value did it give?
A: 9.3 µM

biological target: T2, Bcat-Halo (beta-catenin HaloTag fusion …); test: cell-based or functional assay

Q: For [αAllylPro]D[tBuAla][B5(4)]DDAAFL[PyrS2″][Ala(cPent)][Bta]Q-NH2 (staple 1-4, 4-11) [I-1353], which “NanoBRET Abs IC50” value is on record?
A: 8.8 µM

Q: Which “NanoBRET Abs IC50” value does the source give for Ac-[αAllylPro]D[tBuAla][B5(4)]DDAAFF[PyrS2][Phe(2-Cl)][Bta]Q-NH2 (staple 1-4, 4-11) [I-1366] here?
A: 7.5 µM

Q: Which “NanoBRET Abs IC50” value does the source give for [αAllylPro]D[tBuAla][B5(4)]DDAAFS[PyrS2″]F[Bta]S-NH2 (staple 1-4, 4-11) [I-1357] here?
A: 33.6 µM

Q: Ac-[αAllylPro]D[tBuAla][B5(4)]DDAAF[Phe(3-CF3)][PyrS2][Phe(2-Cl)][Bta]Q-NH2 (staple 1-4, 4-11) [I-1368] was tested. Which “NanoBRET Abs IC50” value did it give?
A: 14.2 µM

Q: With Ac-[αAllylPro]D[tBuAla][B5(4)]DDAAF[Phe(3-CF3)][PyrS2][3Thi][Bta]Q-NH2 (staple 1-4, 4-11) [I-1364] as the binder, how does the “NanoBRET Abs IC50” value read?
A: 10.5 µM

Q: With [αAllylPro]D[tBuAla][B5(4)]DDAAFL[PyrS2]F[Bta]Q-NH2 (staple 1-4, 4-11) [I-1362] as the binder, how does the “NanoBRET Abs IC50” value read?
A: 19.6 µM

Q: How did the “NanoBRET Abs IC50” value turn out when Ac-[αAllylPro]D[tBuAla][B5(4)]DDAAF[Phe(4-CF3)][PyrS2][Phe(2-Cl)][Bta]Q-NH2 (staple 1-4, 4-11) [I-1369] was run?
A: 9.9 µM

Q: [αAllylPro]D[tBuAla][B5(4)]DDAAFN[PyrS2″][Ala(cPent)][Bta]Q-NH2 (staple 1-4, 4-11) [I-1352] was tested. Which “NanoBRET Abs IC50” value did it give?
A: 19.5 µM

Q: How did the “NanoBRET Abs IC50” value turn out when Ac-[αAllylPro]D[tBuAla][B5(4)]DDAAF[Phe(2-CF3)][PyrS2][3Thi][Bta]Q-NH2 (staple 1-4, 4-11) [I-1363] was run?
A: 5.5 µM

Q: Which “NanoBRET Abs IC50” value does the source give for B1 here?
A: > 20 µM

Q: Which “NanoBRET Abs IC50” value does the source give for Ac-[αAllylPro]D[tBuAla][B5(4)]DDAAF[Phe(2-CF3)][PyrS2][Phe(2-Cl)][Bta]Q-NH2 (staple 1-4, 4-11) [I-1367] here?
A: 7.8 µM

Q: For [αAllylPro]D[tBuAla][B5(4)]DDAAFL[PyrS2]F[Bta]Q-NH2 (staple 1-4, 4-11) [I-1361], which “NanoBRET Abs IC50” value is on record?
A: > 20 µM

Q: Which “NanoBRET Abs IC50” value does the source give for Ac-[αAllylPro]D[tBuAla][B5(4)]DDAAF[Phe(4-CF3)][PyrS2][3Thi][Bta]Q-NH2 (staple 1-4, 4-11) [I-1365] here?
A: 9.7 µM
